For assay [1], the target named is Fc-scOX40L (mouse) (UniProt P43488). In words: non-reducing SDS-PAGE and immunoblot; recombinant OX40L proteins in Laemmli sample buffer, non-heated/non-reducing, SDS-PAGE, immunoblot with anti-PA tag antibody; oligomers judged by molecular weight. In general terms: Immunoblotting shows a protein as a band on a membrane.
Assay [2] concerns the target scOX40L-Fc (mouse) (UniProt P43488). The assay is described as above.

The term stoichiometry N denotes a count of units in the complex or per binding partner. With “Fc-scOX40L (from UniProt P43488 51-198; P43488 51-198; P43488 51-198) (Fc fusion)”, the stoichiometry N in assay [1] came out at 2.
For “scOX40L-Fc (from UniProt P43488 51-198; P43488 51-198; P43488 51-198) (Fc fusion)”, the stoichiometry N in assay [2] is 2.

The record behind these values is publication PMC11757143, “Generation and characterization of OX40-ligand fusion protein that agonizes OX40 on T-Lymphocytes” (Frontiers in Immunology, 2025).
